The target in assay [1] is GST-RAD23 (UniProt P54727). Description: Octet (BLI). The note with it: GST-RAD23 on the sensor; GST control curve in the same panel reaches est. 0.21 nm (above the T1 curve); read off a plot. In general terms: In BLI a coated tip is dipped into the sample, and binding shifts an interference pattern.
Assay [2] concerns the target GST-NUB1L, Q9Y5A7-1. The assay can be described thus: Octet (BLI). The settings on record: GST-NUB1L on the sensor; His6-RPN1 variant in solution; parent: est. 0.58; read off a plot.
The target in assay [3] is His6-RPN1 WT (human) (UniProt Q13200). The assay can be described thus: BLI; Octet; His6-RPN1 loaded on the nickel sensor; NUB1L, GST-FAT10, NUB1L with GST-FAT10 or NUB1L with GST in solution; Octet buffer (PBS, 0.1% Triton X-100, 1x ROTIBlock); 1:1 binding model.

Sequence of His6-RPN1 WT (Q13200 whole entry, change not shown): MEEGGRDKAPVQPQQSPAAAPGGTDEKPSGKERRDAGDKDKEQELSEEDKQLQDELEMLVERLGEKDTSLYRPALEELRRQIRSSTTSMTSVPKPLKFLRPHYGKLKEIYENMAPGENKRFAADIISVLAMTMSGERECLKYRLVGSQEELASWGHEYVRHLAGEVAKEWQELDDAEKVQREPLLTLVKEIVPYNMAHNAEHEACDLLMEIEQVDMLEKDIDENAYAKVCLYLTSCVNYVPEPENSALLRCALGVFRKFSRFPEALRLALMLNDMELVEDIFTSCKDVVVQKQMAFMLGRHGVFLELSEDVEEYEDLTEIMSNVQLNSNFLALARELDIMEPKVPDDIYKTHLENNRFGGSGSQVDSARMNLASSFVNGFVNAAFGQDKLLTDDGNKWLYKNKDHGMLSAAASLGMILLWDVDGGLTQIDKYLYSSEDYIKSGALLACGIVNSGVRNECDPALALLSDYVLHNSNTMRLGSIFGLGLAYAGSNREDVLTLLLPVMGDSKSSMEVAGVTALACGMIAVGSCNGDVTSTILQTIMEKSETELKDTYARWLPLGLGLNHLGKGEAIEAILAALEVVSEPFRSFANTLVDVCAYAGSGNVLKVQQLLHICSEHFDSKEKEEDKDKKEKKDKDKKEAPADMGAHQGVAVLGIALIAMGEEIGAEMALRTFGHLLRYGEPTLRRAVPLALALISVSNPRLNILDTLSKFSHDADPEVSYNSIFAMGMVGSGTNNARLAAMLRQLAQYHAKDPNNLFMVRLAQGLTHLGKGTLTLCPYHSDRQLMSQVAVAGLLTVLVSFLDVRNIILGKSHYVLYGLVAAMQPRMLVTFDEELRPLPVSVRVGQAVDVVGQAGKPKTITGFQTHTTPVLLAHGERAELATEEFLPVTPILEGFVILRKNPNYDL
Sequence of GST-RAD23 (P54727 whole entry): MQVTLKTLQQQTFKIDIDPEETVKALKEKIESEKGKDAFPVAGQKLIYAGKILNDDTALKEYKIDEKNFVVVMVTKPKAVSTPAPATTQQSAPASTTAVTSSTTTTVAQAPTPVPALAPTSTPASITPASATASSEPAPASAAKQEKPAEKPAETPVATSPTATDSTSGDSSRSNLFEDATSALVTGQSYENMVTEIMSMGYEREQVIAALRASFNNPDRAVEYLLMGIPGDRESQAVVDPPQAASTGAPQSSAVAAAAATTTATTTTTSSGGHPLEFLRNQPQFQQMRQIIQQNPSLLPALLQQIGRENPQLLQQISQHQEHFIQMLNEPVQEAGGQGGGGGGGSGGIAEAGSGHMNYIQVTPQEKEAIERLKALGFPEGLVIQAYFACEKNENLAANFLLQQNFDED
Sequence of GST-NUB1L, Q9Y5A7-1 (Q9Y5A7 whole entry): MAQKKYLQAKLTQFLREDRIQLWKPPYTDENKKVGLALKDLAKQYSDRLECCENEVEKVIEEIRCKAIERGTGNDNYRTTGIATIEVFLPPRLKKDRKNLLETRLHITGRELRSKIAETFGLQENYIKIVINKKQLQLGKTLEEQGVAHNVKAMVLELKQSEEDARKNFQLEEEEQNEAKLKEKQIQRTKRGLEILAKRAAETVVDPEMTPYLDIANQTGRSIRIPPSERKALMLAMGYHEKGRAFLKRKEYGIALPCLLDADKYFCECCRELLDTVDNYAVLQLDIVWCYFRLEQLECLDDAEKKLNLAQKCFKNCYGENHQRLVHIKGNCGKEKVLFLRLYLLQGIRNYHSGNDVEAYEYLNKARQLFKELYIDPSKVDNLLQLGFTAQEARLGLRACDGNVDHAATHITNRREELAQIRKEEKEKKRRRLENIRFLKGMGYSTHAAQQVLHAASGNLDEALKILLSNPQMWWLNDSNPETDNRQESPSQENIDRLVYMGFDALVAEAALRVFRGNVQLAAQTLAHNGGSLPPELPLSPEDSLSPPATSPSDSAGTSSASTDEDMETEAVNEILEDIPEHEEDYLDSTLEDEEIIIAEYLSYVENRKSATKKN
Sequence of NUB1L-bound GST-FAT10 (NUB1L co-incubated with GST-FAT10) (Q9Y5A7 whole entry): as above
Sequence of NUB1L-bound GST-FAT10 (NUB1L co-incubated with GST-FAT10) (O15205 whole entry): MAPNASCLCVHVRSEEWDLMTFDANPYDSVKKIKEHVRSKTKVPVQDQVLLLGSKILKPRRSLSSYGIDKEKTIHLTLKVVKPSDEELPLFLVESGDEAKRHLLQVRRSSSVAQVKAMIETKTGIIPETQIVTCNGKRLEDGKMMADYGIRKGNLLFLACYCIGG

His6-RPN1 WT (from UniProt Q13200) T1: the response was determined as 0.19 nm in assay [1] and 0.37 nm in assay [2].

As for “NUB1L-bound GST-FAT10 (NUB1L co-incubated with GST-FAT10) (from UniProt Q9Y5A7-1 1-615; O15205 1-165) (complex)”, in assay [3], the fold increase of the affinity for RPN1 against NUB1L alone came to 4 fold.

For the origin of these results see PMC10185811.
